# B1: HPK, HER3-targeted penton base chimera (heregulin ligand - linker - Ad5 penton base - decalysine) (other, human | adenovirus serotype 5 (Ad5))
# chain: ELLPPRLKEMKSQESAAGSKLVLRCETSSEYSSLRFKWFKNGNELNRKNKPQNIKIQKKPGKSELRINKASLADSGEYMCKVISKLGNDSASANITIVESNEIITGMPASTEGAYVSSESPIRISVSTEGANTSSSTSTSTTGTSHLVKCAEKEKTFCVNGGECFMVKDLSNPSRYLCKCQPGFTGARCTENVPMKVQNQEKAEELYGGSGGSGSMRRAAMYEEGPPPSYESVVSAAPVAAALGSPFDAPLDPPFVPPRYLRPTGGRNSIRYSELAPLFDTTRVYLVDNKSTDVASLNYQNDHSNFLTTVIQNNDYSPGEASTQTINLDDRSHWGGDLKTILHTNMPNVNEFMFTNKFKARVMVSRLPTKDNQVELKYEWVEFTLPEGNYSETMTIDLMNNAIVEHYLKVGRQNGVLESDIGVKFDTRNFRLGFDPVTGLVMPGVYTNEAFHPDIILLPGCGVDFTHSRLSNLLGIRKRQPFQEGFRITYDDLEGGNIPALLDVDAYQASLKDDTEQGGGGAGGSNSSGSGAEENSNAAAAAMQPVEDMNDHAIRGDTFATRAEEKRAEAEAAAEAAAPAAQPEVEKPQKKPVIKPLTEDSKKRSYNLISNDSTFTQYRSWYLAYNYGDPQTGIRSWTLLCTPDVTCGSEQVYWSLPDMMQDPVTFRSTRQISNFPVVGAELLPVHSKSFYNDQAVYSQLIRQFTSLTHVFNRFPENQILARPPAPTITTVSENVPALTDHGTLPLRNSIGGVQRVTITDARRRTCPYVYKALGIVSPRVLSSRTFKKKKKKKKKK
# notes: domain II, oligopeptide linker; domain III, adenovirus serotype 5 capsid penton base (PB); domain IV, carboxy-terminal decalysine tail (K10); About 92 kDa monomer; also called HerPBK10; HPK capsomere; not shown: His6, N-terminal, kept
# Biological target: the molecule itself
# Test: native gel or EMSA; native PAGE of purified HPK under neutral conditions (storage buffer 20 mM HEPES pH 7.45, 150 mM NaCl, 10% glycerol; pH 7.4), 4-15% gel, 25 mM Tris, 192 mM glycine pH 8.3
protein,measurement,value
B1,stoichiometry N,≥ 5
